Biological target: synthetic biotinylated and pegylated phospho-tau peptide RSGYSSPG(pS)PG(pT)PGSRSR-OH (human)
Assay: MSD electrochemiluminescence competition on the biotinylated phospho-tau peptide (SEQ ID NO:39) coated on streptavidin plates; competitor: SULFO-TAG-labelled AT8

IC50 (read off the curve): 40 nM
Substance: AT8 anti-tau antibody (ThermoScientific, Rockford, Ill.)

From patent US20150307600A1
